Values belong to the binder of their own block, whether it stands above or below them. Where no end group is shown, it is not given here.
Legend:
[1] = target: T1, PKC-δ (purified isoform) (Homo sapiens (Human), UniProt Q05655 1-676); test: competitive ELISA on purified PKC-δ vs anti-PKC-δ Ab; PRE 50 µM
T1 construct: also called PKC-delta; PKCdelta
Protocol: (§1) Greiner 96 well ELISA plates were coated with the appropriate PKC isoform diluted in PBSN (PBS with Calcium/Magnesium+0.05% Sodium azide w/w). 50 μL/well at 250 ng/mL was used. Control wells contained PBSN only. Plates were incubated overnight at 4° C.
(§2) The plates were washed 3 times with 200 μL of dH₂O per well, then 100 μL of blocking solution was added per well and the plate incubated for 1 h at 37° C. The washing steps with dH₂O were repeated and 50 μL of the appropriate PRE solution (PRE stock solution [20 mM in DMSO] diluted in PBSN) was added and the plate incubated for 1 h at room temperature.
(§3) 50 μL of 1:1000 dilution of Alkaline Phosphatase (AP) conjugated antibody (anti-rabbit for all except zeta, which was anti-goat) was then added and the plate incubated for 1 h at room temperature. Washing with dH₂O was then repeated. Finally, 100 μL of pNPP solution in pNPP buffer (2 mM MgCl₂, 100 mM Sodium bicarbonate in water, pH 9.8) was added to all wells and incubated for 8 minutes for α, βI, βII ε, and ζ, or for 15-20 mins for […] (until sufficient coloration is observed). The reaction was stopped by addition of Stop solution (2N NaOH) and the absorbance at 405 nm was read on a Galaxy Plate reader.

[2] = target: T1, PKC-δ (purified isoform); test: competitive ELISA on purified PKC-δ vs anti-PKC-δ Ab; PRE 200 µM
Protocol: as §1, §2, §3

[3] = target: T1, PKC-δ (purified isoform); test: competitive ELISA on purified PKC-δ vs anti-PKC-δ Ab; PRE 100 µM
Protocol: as §1, §2, §3

[4] = target: T2, PKC-α (endogenous, human cell lysates and cells) (human, UniProt P17252 2-672); test: anti-PKC-α immunofluorescence, V5E-transfected IMR-32 cells loaded with PRE (label on PKC-α and V5E); control with endocytosis reagent 113
T2 construct: Endogenous protein of human cell lysates, on Western blot membranes (denatured) or in fixed cells; also called PKC-alpha; PKC-A
Excerpt: Neuroblastoma cells from the IMR-32 cell line were stably transfected with a vector containing the V5E sequence of PKC-α as outlined above in Example 13. The V5E sequence is part of the antigenic amino acid sequence that is used to raise the commercially available anti-PKC-α isoform-specific antibody.
The peptides PRE 1, 2, 3, 4, 5, 6, 7, 8, 9, 10, 11, 12 and 13 (see Table 3) were incorporated into the transfected IMR-32 cells via pinocytic endocytosis (Molecular Probes) according to the supplier's recommendations. Following fixation and permeabilization, PKC-α was detected using an Alexa fluor secondary antibody (as described above in Example 8).

[5] = target: T3, PKC-βII (purified isoform) (Homo sapiens (Human), UniProt P05771 2-621); test: competitive ELISA on purified PKC-βII vs anti-PKC-βII Ab; PRE 50 µM
T3 construct: also called PKC-beta II
T3 sequence (P05771 other isoform, or with tags, fused parts or gaps limits assumed): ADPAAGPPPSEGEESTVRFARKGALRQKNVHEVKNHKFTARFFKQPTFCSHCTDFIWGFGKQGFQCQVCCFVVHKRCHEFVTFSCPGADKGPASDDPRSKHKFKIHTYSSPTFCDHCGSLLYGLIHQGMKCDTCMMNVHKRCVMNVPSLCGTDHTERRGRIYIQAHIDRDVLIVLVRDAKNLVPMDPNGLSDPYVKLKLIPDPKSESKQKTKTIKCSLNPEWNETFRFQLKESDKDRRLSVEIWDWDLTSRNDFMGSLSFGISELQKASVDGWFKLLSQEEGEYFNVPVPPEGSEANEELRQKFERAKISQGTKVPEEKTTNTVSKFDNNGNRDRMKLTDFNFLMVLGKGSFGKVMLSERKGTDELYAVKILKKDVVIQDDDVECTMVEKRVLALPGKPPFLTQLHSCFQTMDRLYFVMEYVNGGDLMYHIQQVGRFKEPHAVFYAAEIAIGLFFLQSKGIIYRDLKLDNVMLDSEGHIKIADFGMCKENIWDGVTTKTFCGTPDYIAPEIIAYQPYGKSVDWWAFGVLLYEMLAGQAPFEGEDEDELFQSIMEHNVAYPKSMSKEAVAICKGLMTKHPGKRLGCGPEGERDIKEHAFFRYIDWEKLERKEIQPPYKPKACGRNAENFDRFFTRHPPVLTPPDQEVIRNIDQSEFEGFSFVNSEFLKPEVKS
Protocol: as §1, §2, §3

[6] = target: T3, PKC-βII (purified isoform); test: competitive ELISA on purified PKC-βII vs anti-PKC-βII Ab; PRE 200 µM
Protocol: as §1, §2, §3

[7] = target: T3, PKC-βII (purified isoform); test: competitive ELISA on purified PKC-βII vs anti-PKC-βII Ab; PRE 100 µM
Protocol: as §1, §2, §3

[8] = target: T4, PKC-ε (endogenous, human cell extracts) (human, UniProt Q02156 1-737); test: Protocol B blot competition, IMR-32 extract, competitor anti-PKC-ε Ab, Band 1; PRE 50 µg
T4 construct: Two bands on the blot, said to be alternate splicing variants; also called PKC-epsilon; PKC-ε Band 1
T4 sequence (looked up): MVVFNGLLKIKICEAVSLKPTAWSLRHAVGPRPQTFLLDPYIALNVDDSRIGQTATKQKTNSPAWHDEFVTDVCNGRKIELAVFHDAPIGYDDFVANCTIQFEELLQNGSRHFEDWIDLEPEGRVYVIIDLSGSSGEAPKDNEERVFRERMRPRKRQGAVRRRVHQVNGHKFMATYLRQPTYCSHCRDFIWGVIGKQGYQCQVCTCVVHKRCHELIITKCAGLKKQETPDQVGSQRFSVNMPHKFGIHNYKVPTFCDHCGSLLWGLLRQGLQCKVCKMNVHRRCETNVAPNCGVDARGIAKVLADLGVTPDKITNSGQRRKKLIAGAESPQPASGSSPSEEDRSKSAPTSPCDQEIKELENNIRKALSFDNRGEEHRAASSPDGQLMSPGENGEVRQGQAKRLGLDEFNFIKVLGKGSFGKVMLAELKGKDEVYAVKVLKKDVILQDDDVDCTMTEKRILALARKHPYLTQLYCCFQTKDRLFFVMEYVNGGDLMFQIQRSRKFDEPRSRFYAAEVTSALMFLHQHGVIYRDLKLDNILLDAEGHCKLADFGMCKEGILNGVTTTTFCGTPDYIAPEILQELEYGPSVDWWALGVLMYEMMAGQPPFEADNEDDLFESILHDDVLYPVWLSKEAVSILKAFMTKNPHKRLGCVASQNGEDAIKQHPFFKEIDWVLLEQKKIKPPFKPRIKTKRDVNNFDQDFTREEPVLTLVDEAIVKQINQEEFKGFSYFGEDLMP
Protocol: (§4) The ability of the peptides PRE 2 and PRE 3 (see Table 3) to interfere with the binding of a PKC-α-specific polyclonal antibody (Santa Cruz Biotechnology, Inc.) to PKC-α was determined using a modified version of the protocol outlined above in which the test peptide was added directly to the cell extract prior to electrophoresis at a concentration of either 5× or 15× the concentration of the protein applied to each well of the gel for the Western blots (20 μg).
(§5) Peptides PRE 2, PRE 3 and PRE 4 (see Table 3) were tested for their ability to interfere with the binding of isoform-specific polyclonal antibodies (Santa Cruz Biotechnology, Inc.) to PKC-ε using the general protocol described in Example 3. Two bands, representing alternate splicing variants of PKC-ε, were identified on the Western blot using this anti-PKC-ε antibody.

[9] = target: T4, PKC-ε (endogenous, human cell extracts); test: Protocol B blot competition, IMR-32 extract, competitor anti-PKC-ε Ab, Band 2; PRE 50 µg
Protocol: as §4, §5

[10] = target: T4, PKC-ε (endogenous, human cell extracts); test: Protocol B blot competition, IMR-32 extract, competitor anti-PKC-ε Ab, Band 2; PRE 20 µg
Protocol: as §4, §5

[11] = target: T4, PKC-ε (endogenous, human cell extracts); test: Protocol B blot competition, IMR-32 extract, competitor anti-PKC-ε Ab, Band 2; PRE 100 µg
Protocol: as §4, §5

[12] = target: T4, PKC-ε (endogenous, human cell extracts); test: Protocol B blot competition, IMR-32 extract, competitor anti-PKC-ε Ab, Band 1; PRE 100 µg
Protocol: as §4, §5

[13] = target: T4, PKC-ε (endogenous, human cell extracts); test: Protocol B blot competition, IMR-32 extract, competitor anti-PKC-ε Ab, Band 1; PRE 20 µg
Protocol: as §4, §5

[14] = target: T5, PKC-ζ (purified isoform) (Homo sapiens (Human), UniProt Q05513 1-592); test: competitive ELISA on purified PKC-ζ vs anti-PKC-ζ Ab; PRE 50 µM
T5 construct: also called PKC-zeta; PKCzeta
T5 sequence: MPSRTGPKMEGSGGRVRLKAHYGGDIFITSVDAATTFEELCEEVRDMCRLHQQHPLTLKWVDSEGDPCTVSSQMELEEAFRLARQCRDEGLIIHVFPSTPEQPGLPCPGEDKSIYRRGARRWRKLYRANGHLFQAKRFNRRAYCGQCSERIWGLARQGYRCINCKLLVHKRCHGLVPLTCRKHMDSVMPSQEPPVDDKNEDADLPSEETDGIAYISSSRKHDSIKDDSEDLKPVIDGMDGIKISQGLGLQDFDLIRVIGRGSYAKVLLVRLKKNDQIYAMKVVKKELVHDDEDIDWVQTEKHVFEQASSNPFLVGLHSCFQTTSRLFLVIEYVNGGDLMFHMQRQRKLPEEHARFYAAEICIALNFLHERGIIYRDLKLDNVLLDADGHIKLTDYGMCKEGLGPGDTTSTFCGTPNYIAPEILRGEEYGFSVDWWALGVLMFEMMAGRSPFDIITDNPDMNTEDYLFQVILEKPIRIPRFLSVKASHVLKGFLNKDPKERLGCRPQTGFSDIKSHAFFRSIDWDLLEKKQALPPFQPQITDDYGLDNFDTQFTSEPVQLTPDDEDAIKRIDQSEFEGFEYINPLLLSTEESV
Protocol: as §1, §2, §3

[15] = target: T5, PKC-ζ (purified isoform); test: summary grade, purified isoform ELISA
[16] = target: T5, PKC-ζ (purified isoform); test: competitive ELISA on purified PKC-ζ vs anti-PKC-ζ Ab; PRE 200 µM
Protocol: as §1, §2, §3

[17] = target: T5, PKC-ζ (purified isoform); test: competitive ELISA on purified PKC-ζ vs anti-PKC-ζ Ab; PRE 100 µM
Protocol: as §1, §2, §3

T1 sequence (Q05655 whole entry, stated change not applied, canonical isoform): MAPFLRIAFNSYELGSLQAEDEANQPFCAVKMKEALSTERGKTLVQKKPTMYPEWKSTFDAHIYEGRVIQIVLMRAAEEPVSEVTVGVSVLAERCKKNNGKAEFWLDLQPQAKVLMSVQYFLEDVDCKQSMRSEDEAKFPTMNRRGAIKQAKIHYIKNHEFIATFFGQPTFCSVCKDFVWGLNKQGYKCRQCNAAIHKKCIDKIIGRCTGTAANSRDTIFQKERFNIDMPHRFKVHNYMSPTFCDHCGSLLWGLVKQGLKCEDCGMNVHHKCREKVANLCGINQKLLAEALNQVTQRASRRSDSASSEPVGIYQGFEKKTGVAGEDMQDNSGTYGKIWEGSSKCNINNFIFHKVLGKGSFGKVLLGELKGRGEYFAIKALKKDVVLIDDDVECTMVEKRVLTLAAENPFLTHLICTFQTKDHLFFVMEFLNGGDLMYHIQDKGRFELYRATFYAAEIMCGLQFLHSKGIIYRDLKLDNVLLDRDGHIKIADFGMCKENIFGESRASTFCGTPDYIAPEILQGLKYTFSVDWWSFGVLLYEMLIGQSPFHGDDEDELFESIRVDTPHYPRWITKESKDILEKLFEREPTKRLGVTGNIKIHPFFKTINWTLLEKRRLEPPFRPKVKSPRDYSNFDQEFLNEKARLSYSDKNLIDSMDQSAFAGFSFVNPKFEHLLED

- binding capacity (%) [1]: 0.2%
- binding capacity (%) [2]: 4.31%
- binding capacity (%) [3]: 0%
- Relative Fluorescence Intensity [4]: 124
B1: PRE 5 (peptide)
peptide: Ac-AKGIQEVKGGKDAQNLIGISI-NH2
notes: Synthetic peptide; also called peptide PRE 5

- Relative Fluorescence Intensity [4]: 122
- binding capacity (%) [5]: 0%
- binding capacity (%) [6]: 0%
- binding capacity (%) [7]: 0%
B2: PRE 10 (peptide)
peptide: Ac-ISIGILNQADK-NH2
notes: Synthetic peptide; also called peptide PRE 10

- band intensity [8]: 0
- inhibition (%) [8]: 100%
- relative intensity (%) [8]: 0%
- band intensity [9]: 0
- inhibition (%) [9]: 100%
- relative intensity (%) [9]: 0%
- band intensity [10]: 160
- inhibition (%) [10]: 38.6%
- relative intensity (%) [10]: 61.4%
- band intensity [11]: 0
- inhibition (%) [11]: 100%
- relative intensity (%) [11]: 0%
- band intensity [12]: 0
- inhibition (%) [12]: 100%
- relative intensity (%) [12]: 0%
- band intensity [13]: 323
- inhibition (%) [13]: 23.4%
- relative intensity (%) [13]: 76.6%
B3: PRE 2 (peptide)
peptide: KDAQNLIGISL-NH2
notes: Synthetic peptide; also called peptide PRE 2

- binding capacity (%) [1]: 6.96%
- binding capacity (%) [2]: 6.68%
- binding capacity (%) [14]: 0%
- binding result [15]: no binding (tested: 200 µM)
- binding capacity (%) [3]: 3.38%
- Relative Fluorescence Intensity [4]: 81
- binding capacity (%) [16]: 0%
- binding capacity (%) [17]: 0%
B4: PRE 8 (peptide)
peptide: ILEDKGGDAQNLIGISI
notes: Synthetic peptide; termini given free; also called peptide PRE 8

From patent US20100041597A1 (published 2010)
